Reference: paper PMC5429843

Experiments:
His187 = His187 (UniProt position 187, ITIKQHTVTTT); experiment: NMR; settings: 20 °C, not stated (36 mM sodium phosphate + 36 mM sodium citrate, no added salt stated), folded GHaPrP90-231, 1 mM
His186 = His186 (UniProt position 186, ITVKQHTVTTT); experiment: NMR; settings: 20 °C, not stated (36 mM sodium phosphate + 36 mM sodium citrate, no added salt stated), folded RaPrP90-231, 1 mM

Row | Substance | pKa (His187) | pKa (His187; oxidised disulfide. Progressive loss of amide dispersion and peak inhomogeneity near pH 5.) | pKa (His186) | pKa (His186; oxidised disulfide)
1 | Major prion protein, C-terminal domain (GHaPrP90-231) (Mesocricetus auratus (golden/Syrian hamster)) | 4.9 ± 0.2 | 4.9 ± 0.1 |  | 
2 | Major prion protein, C-terminal domain (RaPrP90-231) (Oryctolagus cuniculus (rabbit)) |  |  | 5.1 | 5.1 ± 0.1
